According to article PMC3290565:

Biological target: T1, NalC-His (Pseudomonas aeruginosa K767) (UniProt Q9HXS0)
T1 sequence: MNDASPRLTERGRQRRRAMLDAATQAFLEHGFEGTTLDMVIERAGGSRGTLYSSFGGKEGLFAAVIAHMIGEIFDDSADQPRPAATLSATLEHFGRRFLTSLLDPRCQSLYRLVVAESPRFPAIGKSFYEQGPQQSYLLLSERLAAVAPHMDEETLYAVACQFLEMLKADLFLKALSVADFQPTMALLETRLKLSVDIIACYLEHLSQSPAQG
Assay: EMSA

Sequence | binding
GAGCGGTATCGGGCCTCGCGGGGTGGCGGTCGGAAGGTGCGCATGGTGGGCCGTCGGGACGGTCCGTTCAAGCCTCCAGGCGGTTTGCTGAGAGCGTTTCTCGTTAGGGTTGACGCTGGTCATTTAAGAACTGTATCGTACAGTACTGTTTTGGCAAGCACTTCCGCTCATTCCTCCGCCTTGCCTCCCCGCAGGAGTCCCCCCA (double strand) [nalC-PA3720 intergenic region] | binds
CTAACGAGAAACGCTCTCAGCAAACCGCCTGGAGGCTTGAACGGACCGTCCCGACGGCCCACCATGCGCACCTTCCGACCGCCACCCCGCGAGGCCCGATACCGCTC (double strand) [PA3720-proximal fragment (endpoints II)] | binds
TTAGGGTTGACGCTGGTCATTTAAGAACTGTATCGTACAGTACTGTTTTGGCAAGCACTTCCGCTCATTCCTCCGCCTTGCCTCCCCGCAGGAGTCCCCCCA (double strand) [PA3720-distal fragment (endpoints I)] | no binding
